Test results: PMC9736779

Target: nucleolin (NCL) (Homo sapiens) (UniProt P19338)
Experiment: SPR
Conditions: SPR (Biacore X-100, CM5): 10 mM HEPES, 70 mM KCl, pH 7.4, 25 C, analyte 5-500 uM, two-state reaction fit

Sequence of nucleolin (NCL) (Homo sapiens) (P19338 whole entry): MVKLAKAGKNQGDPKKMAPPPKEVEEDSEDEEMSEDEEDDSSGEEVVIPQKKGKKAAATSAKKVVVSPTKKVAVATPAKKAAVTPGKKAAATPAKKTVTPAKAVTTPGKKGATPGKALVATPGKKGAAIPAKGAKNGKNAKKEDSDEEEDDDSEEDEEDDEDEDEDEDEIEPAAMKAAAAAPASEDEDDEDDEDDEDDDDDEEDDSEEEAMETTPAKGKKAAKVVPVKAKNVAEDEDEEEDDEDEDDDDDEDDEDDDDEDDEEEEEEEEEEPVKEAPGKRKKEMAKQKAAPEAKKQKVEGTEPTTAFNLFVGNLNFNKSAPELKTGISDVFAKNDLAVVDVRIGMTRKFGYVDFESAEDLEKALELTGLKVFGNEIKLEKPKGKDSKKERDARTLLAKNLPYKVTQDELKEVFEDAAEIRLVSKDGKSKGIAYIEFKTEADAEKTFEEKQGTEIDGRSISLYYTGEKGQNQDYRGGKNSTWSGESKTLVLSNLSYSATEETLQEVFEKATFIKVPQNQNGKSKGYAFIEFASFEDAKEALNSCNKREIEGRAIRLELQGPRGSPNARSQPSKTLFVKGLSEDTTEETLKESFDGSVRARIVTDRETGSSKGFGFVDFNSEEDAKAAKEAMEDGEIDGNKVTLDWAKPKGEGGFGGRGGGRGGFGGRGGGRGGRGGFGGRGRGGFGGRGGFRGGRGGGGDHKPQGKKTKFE

Row | Sequence | Kd (N at 11-13 = abasic site mimic (dSpacer, 1',2'-dideoxyribose)) [µM] | Kd (N at 5,6 = abasic site mimic (dSpacer, 1',2'-dideoxyribose)) [µM]
1 | GGGGTTGGGGNNNGGGGTTGGGG [TBAG4GS] | 32.2 | –
2 | GGGGNNGGGGTGTGGGGTTGGGG [TBAG41S] | – | 41.5
